To fix the notation:
T1: Full-length human TIGIT on CHO-K1 cells (CHO-K1 human TIGIT) (human, UniProt Q495A1 22-244)
T1 construct: NCBI XP_024309156.1; the entry includes the signal peptide (limits not recoverable); The strain (high, medium, low) is named under assay; also called high expression strain 1D2; medium expression strain 2D10
T1 sequence: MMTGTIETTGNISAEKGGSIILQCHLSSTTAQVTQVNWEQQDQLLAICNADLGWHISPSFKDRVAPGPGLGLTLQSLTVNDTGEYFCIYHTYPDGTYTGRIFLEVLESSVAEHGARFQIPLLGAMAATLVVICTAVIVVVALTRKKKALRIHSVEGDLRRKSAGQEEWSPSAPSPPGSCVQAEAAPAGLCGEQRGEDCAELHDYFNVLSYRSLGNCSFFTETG

T2: Fusion protein of extracellular domain of human TIGIT and mouse IgG2a Fc fragment (human TIGIT ECD-mFc) (human)
T2 construct: The entry includes the signal peptide (limits not recoverable) and the mouse IgG2a Fc
T2 chain: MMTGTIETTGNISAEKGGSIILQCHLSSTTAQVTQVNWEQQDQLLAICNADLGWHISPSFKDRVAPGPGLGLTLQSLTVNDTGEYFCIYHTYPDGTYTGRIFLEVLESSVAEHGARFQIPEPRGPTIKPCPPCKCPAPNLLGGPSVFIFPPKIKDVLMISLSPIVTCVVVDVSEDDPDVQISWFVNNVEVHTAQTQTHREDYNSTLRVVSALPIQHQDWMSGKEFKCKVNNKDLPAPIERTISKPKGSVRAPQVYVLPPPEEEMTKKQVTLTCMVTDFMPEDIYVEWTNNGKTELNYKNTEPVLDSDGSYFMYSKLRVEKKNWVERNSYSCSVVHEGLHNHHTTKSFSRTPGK

B1: TIGIT-002-H2L1 (antibody, V domains shown)
VH: EVQLQESGPGLVKPSETLSLTCAVSGYSITSDSWNWIRQPPGKKLEWIGYISYSGNTYYNPSLKSRVTISRDTSKNQFSLKLSSVTAADTAVYYCARLDFSNYGGAVDYWGQGTTVTVSS
VL: DIVMTQTPLSLSVTPGQPASISCKASQNVRTAVAWYLQKPGQSPQLMIYSASYRYTGVPDRFSGSGSGTDFTLKISRVEAEDVGVYYCQQYYTTPWTFGGGTKVEIK
notes: Humanized anti-TIGIT antibody
B2: TIGIT-002-H4L2 (antibody, V domains shown)
VH: B1 VH with W47Y
VL: B1 VL with L37Q
notes: Humanized anti-TIGIT antibody
B3: TIGIT-002-H3L1 (antibody, V domains shown)
VH: B1 VH with I48M, V67I
VL: B1 VL
notes: Humanized anti-TIGIT antibody
B4: TIGIT-002-H1L1 (antibody, V domains shown)
VH: B1 VH with K44G
VL: B1 VL
notes: Humanized anti-TIGIT antibody
B5: TIGIT-002-H4L1 (antibody, V domains shown)
VH: B1 VH with W47Y
VL: B1 VL
notes: Humanized anti-TIGIT antibody
B6: TIGIT-002-H1L2 (antibody, V domains shown)
VH: B1 VH with K44G
VL: B1 VL with L37Q
notes: Humanized anti-TIGIT antibody
B7: TIGIT-002-H3L2 (antibody, V domains shown)
VH: B1 VH with I48M, V67I
VL: B1 VL with L37Q
notes: Humanized anti-TIGIT antibody
B8: TIGIT-002-H2L2 (antibody, V domains shown)
VH: B1 VH
VL: B1 VL with L37Q
notes: Humanized anti-TIGIT antibody

Changes are numbered by the printed parent chain.

T4 sequence (chain, as listed by the source limits assumed): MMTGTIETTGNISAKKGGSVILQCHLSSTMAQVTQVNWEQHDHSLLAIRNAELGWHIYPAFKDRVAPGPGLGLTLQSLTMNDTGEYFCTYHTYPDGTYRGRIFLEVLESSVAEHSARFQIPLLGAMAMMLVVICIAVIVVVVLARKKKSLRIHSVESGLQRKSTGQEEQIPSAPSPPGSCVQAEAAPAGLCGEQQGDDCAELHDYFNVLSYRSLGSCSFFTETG

The target in one experiment is T3, Fusion protein of extracellular domain of human TIGIT and human IgG1 Fc fragment (human TIGIT ECD-hFc) (human).
T3 construct: The entry includes the signal peptide (limits not recoverable) and the human IgG1 Fc
T3 sequence (chain, as listed by the source limits assumed): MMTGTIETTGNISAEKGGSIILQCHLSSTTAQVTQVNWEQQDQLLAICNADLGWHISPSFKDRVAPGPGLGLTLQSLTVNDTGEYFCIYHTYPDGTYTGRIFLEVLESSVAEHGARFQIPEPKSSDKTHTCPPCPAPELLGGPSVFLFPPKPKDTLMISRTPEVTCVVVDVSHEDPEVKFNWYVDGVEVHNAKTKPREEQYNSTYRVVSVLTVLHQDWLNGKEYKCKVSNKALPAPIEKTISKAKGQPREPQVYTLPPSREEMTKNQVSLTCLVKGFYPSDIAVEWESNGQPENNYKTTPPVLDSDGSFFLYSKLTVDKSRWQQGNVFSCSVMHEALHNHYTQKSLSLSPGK
In words: blocking of TIGIT ECD-hFc binding to CHO-K1 CD155 cells. Summed up:
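Cell-based ELISA on CHO-K1 CD155 cells, cultured overnight, fixed and blocked with 5% skim milk-PBS. Antibodies were premixed for 0.5 h with human TIGIT ECD-hFc (working concentration 30 ng/mL), then added and held at 37° C for 1.5-2 h. Bound TIGIT was detected with HRP secondary antibody (1:5000, 37° C, 1 h) and TMB, read as OD450 nm. IC50 came from the inhibition curves.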
In general, IC50 refers to the concentration that gives 50% inhibition. B1 yielded an IC50 of 0.646 nM.
As to B2, the IC50 was found to be 0.44 nM.
Molecule B3 gave an IC50 of 0.459 nM.
Still for that read-out and setting: under B4 stands 0.526 nM; under B5, 0.445 nM; under B6, 0.421 nM.
On the same count and under the same terms, under B7 stands 0.394 nM; under B8, 0.56 nM.

The next experiment addresses T4, Full-length cynomolgus monkey TIGIT on CHO-K1 cells (CHO-K1 cynomolgus monkey TIGIT) (cynomolgus monkey).
T4 construct: NCBI XP_015300911.1
In words: cell binding, CHO-K1 cynomolgus monkey TIGIT. On the procedure: (§1) The collected cells were washed once with PBS (Hyclone, CAT #SH30256), resuspended to 2×10⁵/50 μL with 1% BSA-PBS. The antibodies were diluted to 80 nM with 1% BSA-PBS (diluted by 3-fold serial dilution for 12 concentration points). The 50 μL cells were then mixed with 50 μL diluted antibodies, and then incubated at 4° C. for 60 minutes. […] After washing twice with PBS, the cell samples were resuspended with 1% BSA-PBS, 100 μL/well and then analyzed by flow cytometry (BD, Canto II). […] [0298] (c) The effect of anti-TIGIT chimeric antibodies blocking the interaction between Bio-CD155-His and CHO-K1 human TIGIT high expression cell strains detected by FACS
(§2) The affinity of the above humanized antibodies with human TIGIT ECD-His is detected by BIAcore, and with reference to the methods of Example 4 (a), (b), and (d), the binding activity of the above humanized antibodies to human TIGIT ECD-mFc, CHO-K1 human TIGIT, CHO-K1 cynomolgus monkey TIGIT and cynomolgus monkey TIGIT ECD-mFc, and the effect of the humanized antibodies blocking the binding between human TIGIT ECD-mFc and CHO-K1 CD155 are detected, the results are shown in Table 18.
By EC50 is commonly meant the midpoint of the concentration-response curve. As for B1, the EC50 was 0.181 nM.
Regarding B2, it took 0.0474 nM to reach a half-maximal effect (EC50).
The same measure, in the same setting: under B3 stands 0.232 nM; under B4, 0.187 nM; under B5, 0.0543 nM.
Take B6: the EC50 came to 0.221 nM.
On the same count and under the same terms, under B7 stands 0.113 nM.
B8 registered an EC50 of 0.12 nM.

The target of a further experiment is T5, Fusion protein of extracellular domain of cynomolgus monkey TIGIT and mouse IgG2a Fc fragment (cynomolgus … (cynomolgus monkey)).
T5 construct: The entry includes the signal peptide (limits not recoverable) and the mouse IgG2a Fc
T5 sequence (chain, as listed by the source limits assumed): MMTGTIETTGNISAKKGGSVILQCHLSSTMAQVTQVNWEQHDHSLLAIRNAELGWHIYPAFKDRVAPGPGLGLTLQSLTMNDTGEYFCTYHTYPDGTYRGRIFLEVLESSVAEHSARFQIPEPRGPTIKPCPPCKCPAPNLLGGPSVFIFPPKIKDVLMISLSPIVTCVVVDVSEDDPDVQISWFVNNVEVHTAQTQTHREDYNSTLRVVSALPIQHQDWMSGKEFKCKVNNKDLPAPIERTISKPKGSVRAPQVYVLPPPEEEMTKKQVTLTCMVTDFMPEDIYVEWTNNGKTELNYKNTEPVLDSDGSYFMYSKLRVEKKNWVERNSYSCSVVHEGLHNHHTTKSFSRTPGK
In words: ELISA, cynomolgus monkey TIGIT ECD-mFc. The procedure: (§3) After discarding the coating solution, the plate was added with 5% skim milk powder (Sangon Biotech, CAT #A600669-0250)-PBS, 250 μL/well, and incubated at 37° C. for 2-4 hours. […] The enzyme-labeled plate was then washed with 0.05% Tween 20-PBS for 3 times on the Microplate Washer, added with tested antibodies diluted to 13 nM with 1% BSA (diluted by 3-fold serial dilution for 12 concentration points), 50 μL/well, and incubated at 37° C. for 1.5-2 hours. The plate was washed with 0.05% Tween 20-PBS for 3 times on the Microplate Washer, then added with HRP enzyme-labeled antibodies (Merck, CAT #AP113P) diluted with 1% BSA (Sangon Biotech, CAT #A500023-0100)-PBS at a dilution ratio of 1:5000, 50 μL/well, and incubated at 37° C. for 1 hour. After washing 3 times with 0.05% Tween 20-PBS on the Microplate Washer, the plate was added with TMB chromogenic solution (KPL, CAT #52-00-03), 50 μL/well, and incubated at room temperature for 7-10 minutes. 1M HCL, 50 μL/well, was then added into the plate to terminate the reaction, and the OD450 nm was read by a microplate reader (Biotek, Powerwave HT). […] (b) The binding activity of anti-TIGIT chimeric antibodies to CHO-K1 human TIGIT (cells with high, medium and low expression levels) and CHO-KI cynomolgus monkey TIGIT detected by FACS.
as §2
A general note: An ELISA detects its analyte on a solid surface through an enzyme-linked reagent.
B1 returned an EC50 of 0.0877 nM.
Same read-out and setting: under B2 stands 0.0254 nM.
On the same count and under the same terms, with B3 the figure was 0.0253 nM.
Molecule B4 yielded a concentration for a half-maximal effect (EC50) of 0.209 nM.
B5 gave a half-maximal effective concentration (EC50) of 0.0206 nM.
Still for that read-out and setting: with B6 the figure was 0.0811 nM.
Turning to B7, the EC50 worked out at 0.0218 nM.
Same read-out and setting: with B8 the figure was 0.0554 nM.

A further experiment deals with T1, Full-length human TIGIT on CHO-K1 cells …. In words: cell binding, CHO-K1 human TIGIT high expression strain. On the procedure: as §1, §2
The molecule B1 came in with an EC50 of 0.0468 nM.
The same measure, in the same setting: with B2 the figure was 0.0294 nM; with B3, 0.0204 nM; with B4, 0.0201 nM.
Same read-out and setting: with B5 the figure was 0.0253 nM; with B6, 0.0167 nM; with B7, 0.0329 nM.
Turning to B8, the midpoint of the response, the EC50, lay at 0.0215 nM.

In the next experiment the target is T2, Fusion protein of extracellular domain …. In words: ELISA, human TIGIT ECD-mFc. The procedure: as §3, §2
Molecule B1 returned an EC50 of 0.0188 nM.
Molecule B2 showed an EC50 of 0.0179 nM.
On the same count and under the same terms, with B3 the figure was 0.012 nM; with B4, 0.0155 nM.
Turning to B5, a half-maximal response (EC50) required 0.0164 nM.
The same measure, in the same setting: under B6 stands 0.0158 nM.
Consider B7, for which the EC50 came to 0.017 nM.
The same measure, in the same setting: under B8 stands 0.0222 nM.

The values above are taken from US20240343803A1 (SHANDONG SIMCERE BIOPHARMACEUTICAL, published 2024).
